Assay results reported in patent US20210070885A1 (JIANGSU ALPHAMAB BIOPHARMACEUTICALS, published 2021).

Assays:
HER2m2-Fc = target: T1, HER2m2-Fc (human, UniProt P04626 23-652); assay: indirect ELISA as in Example 2-6, EC50 compared
T1 construct: also called HERm2; Herm2

HER2m1-Fc = target: T2, HER2m1-Fc (human, UniProt P04626 23-652); assay: indirect ELISA as in Example 2-6, EC50 compared
T2 construct: also called HERm1; Her2 ml

| Binder | binding result (HER2m2-Fc) | fold reduction of affinity against the original Trastuzumab (HER2m1-Fc) [fold] |
| --- | --- | --- |
| Pmab-CLC2 (antibody, human IgG1, kappa, V domains shown, Pertuzumab heavy chain with common light chain CLC2) VH: EVQLVESGGGLVQPGGSLRLSCAASGFTFTDYTMDWVRQAPGKGLEWVADVNPNSGGSIYNQRFKGRFTLSVDRSKNTLYLQMNSLRAEDTAVYYCARNLGPSFYFDYWGQGTLVTVSS VL: not shown | binds | – |
| Tmab-CLC5 (antibody, human IgG1, kappa, V domains shown) VH: not shown VL: DIQMTQSPSSLSASVGDRVTITCKASQDVSIGVAWYQQKPGKAPKLLIYSASYRYTGVPSRFSGSGSGTDFTLTISSLQPEDFATYYCQQYYIYPYTFGQGTKVEIKR | – | ~1 |
| Tmab-CLC6 (antibody, human IgG1, kappa, V domains shown) VH: not shown VL: DIQMTQSPSSLSASVGDRVTITCKASQDVSIGVAWYQQKPGKAPKLLIYSASYRYTGVPSRFSGSGSGTDFTLTISSLQPEDFATYYCQQYYITPYTFGQGTKVEIKR | – | ~1 |

The remaining lines, values ahead:

| binding result (HER2m2-Fc) | fold reduction of affinity against the original Trastuzumab (HER2m1-Fc) [fold] | Binder |
| --- | --- | --- |
| binds | – | Pmab-CLC6 (antibody, human IgG1, kappa, V domains shown, Pertuzumab heavy chain with common light chain CLC6 (Y94T)) VH: EVQLVESGGGLVQPGGSLRLSCAASGFTFTDYTMDWVRQAPGKGLEWVADVNPNSGGSIYNQRFKGRFTLSVDRSKNTLYLQMNSLRAEDTAVYYCARNLGPSFYFDYWGQGTLVTVSS VL: DIQMTQSPSSLSASVGDRVTITCKASQDVSIGVAWYQQKPGKAPKLLIYSASYRYTGVPSRFSGSGSGTDFTLTISSLQPEDFATYYCQQYYITPYTFGQGTKVEIKR |
| binds | – | Pmab-CLC4 (antibody, human IgG1, kappa, V domains shown, Pertuzumab heavy chain with common light chain CLC4) VH: EVQLVESGGGLVQPGGSLRLSCAASGFTFTDYTMDWVRQAPGKGLEWVADVNPNSGGSIYNQRFKGRFTLSVDRSKNTLYLQMNSLRAEDTAVYYCARNLGPSFYFDYWGQGTLVTVSS VL: not shown |
| binds | – | Pmab-CLC3 (antibody, human IgG1, kappa, V domains shown, Pertuzumab heavy chain with common light chain CLC3) VH: EVQLVESGGGLVQPGGSLRLSCAASGFTFTDYTMDWVRQAPGKGLEWVADVNPNSGGSIYNQRFKGRFTLSVDRSKNTLYLQMNSLRAEDTAVYYCARNLGPSFYFDYWGQGTLVTVSS VL: not shown |
